Reference: article PMC8885691 (2022)

Biological target: p53pΔF19
Experiment: ITC

- Kd: 20.1 µM
B1: p53-binding domain of human MdmX (N-MdmX, amino acids 22-110) (domain or fragment)
chain: GQINQVRPKLPLLKILHAAGAQGEMFTVKEVMHYLGQYIMVKQLYDQQEQHMVYCGGDLLGELLGRQSFSVKDPSPLYDMLRKNLVTLA
